Data on 1 molecule can be found in patent publication US6566489 (GENERAL HOSPITAL, dated 2003).

The target in the assay is T1, GST alone (UniProt P08515 1-218 = GST).
T1 construct: Negative control
As to the kind of experiment: pull-down on GST beads, western blot with CS4E. On the procedure: Fifteen µl of a 50% slurry of GST-S4BP bound to GST beads were incubated with 10 µg of soluble pMal-syndecan in 0.5 ml of lysis buffer that contained 1% BSA. After incubation for 30 minutes at room temperature with constant mixing, the reaction mixtures were placed on ice and washed 3× with lysis buffer followed by, 3 washes with lysis buffer containing 1 M NaCl. Protein bound to GST-S4BP beads was solubilized in SDS-PAGE buffer, electrophoresed, transferred to an Immobilon-P membrane and analyzed for bound syndecan-4 core protein using the avian specific syndecan-4 polyclonal antibody CS4E (Baciu et al. (1994) *J. Biol. Chem.* 269:696–703).

T1 sequence (P08515 whole entry): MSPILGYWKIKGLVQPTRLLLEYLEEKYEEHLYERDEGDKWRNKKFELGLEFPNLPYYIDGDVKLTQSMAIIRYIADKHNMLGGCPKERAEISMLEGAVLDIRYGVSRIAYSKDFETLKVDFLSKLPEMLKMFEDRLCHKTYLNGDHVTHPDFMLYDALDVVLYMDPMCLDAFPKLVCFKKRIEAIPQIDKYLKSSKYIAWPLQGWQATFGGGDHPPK

B1: pMal/syndecan-4 fusion protein, full length syndecan-4 core protein (S-4) (other, avian, UniProt P49416 20-197, looked up, not shown: large carriers)
chain: ESVRETETMDARWLDNVGSGDLPDDEDIGEFTPHLTSDEFDIDDTSGSGDYSDYDDAIYLTTVDTPAISDNYIPGDTERKMEGEKKNTMLDNEIIPDKASPVEANLSNKISMASTANSSIFERTEVLTALIAGGAVGLLFAVFLILLLVYRMKKKDEGSYDLGKKPIYKKAPTNEFYA
notes: Bacterially expressed, soluble, purified on a maltose column
In the case of B1, the binding result is given as “no binding (tested: 10 µg of soluble pMal-syndecan in 0.5 ml)”.
